From paper PMC11551740

Target: M.EcoGII (methyltransferase EcoGII) (Escherichia coli)
Assay: SEC; 50-100 ug protein on Superdex 200 Increase 10/300 GL, 0.75 ml/min, 20 mM HEPES (pH 7.0 in the methods, pH 7.4 in the legend), 250 mM NaCl; molecular weight estimated from a calibration curve of LMW markers

In the case of “M.EcoGII (methyltransferase EcoGII) (enzyme)”, the stoichiometry N is reported as 2.
